The record followed here is PMC2649420 (The Journal of biological chemistry, 2008).

In this assay the target is Sbi-III-IV (amino acids 150-266), domains III and IV of Sbi (S. aureus strain Mu50, UniProt Q99RL2 150-266). The assay can be described thus: SPR. (In general: In SPR one partner is held on a chip, and binding of the other changes the refractive index at the surface.)

B1: C3a anaphylatoxin (domain or fragment)
chain: not shown
For B1, binding was characterised by a dissociation constant (Kd) of 19.8 µM.
